Measurements published in the supplement of paper PMC9112550, “Optimization of the antimicrobial peptide Bac7 by deep mutational scanning” (BMC Biology, 2022).

System: Escherichia coli TOP10
Assay: shrunken log2 fold change of peptide-encoding DNA abundance (4.5 h post-induction vs induction); higher = less antimicrobial activity (less host growth inhibition)
Conditions: time post-induction: 4.5 h; library: site-saturation at positions 5, 18, 19, 20
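Further: peptides expressed intracellularly from a pBAD plasmid library in pooled LB shake-flask culture, induced with 0.3% L-arabinose, DNA abundance read by NGS, three biological replicates, DESeq2 with apeglm shrinkage.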

Row | Sequence | shrunken log2 fold change
1 | RRIRNRPPRLPRPRPRPIKGPRP | -0.104
2 | RRIRFRPPRLPRPRPRPADWPRP | 0.36
3 | RRIRYRPPRLPRPRPRPIDIPRP | -0.0256
4 | RRIRRRPPRLPRPRPRPDLEPRP | 0.0267
5 | RRIRWRPPRLPRPRPRPWYPPRP | 0.0299
6 | RRIRKRPPRLPRPRPRPWGNPRP | -0.0638
7 | RRIRFRPPRLPRPRPRPGTSPRP | -0.0716
8 | RRIRIRPPRLPRPRPRPNRKPRP | 0.00157
9 | RRIRIRPPRLPRPRPRPTSYPRP | -0.261
10 | RRIRYRPPRLPRPRPRPVTIPRP | -0.0242
11 | RRIRWRPPRLPRPRPRPRLKPRP | 0.689
12 | RRIRHRPPRLPRPRPRPKSKPRP | -0.598
13 | RRIRSRPPRLPRPRPRPRDKPRP | 0.0811
14 | RRIRGRPPRLPRPRPRPVKQPRP | 0.216
15 | RRIRGRPPRLPRPRPRPKCNPRP | 0.541
16 | RRIRYRPPRLPRPRPRPKAFPRP | 0.0171
17 | RRIRARPPRLPRPRPRPFYVPRP | -0.383
18 | RRIRIRPPRLPRPRPRPYFNPRP | -1.29
19 | RRIRMRPPRLPRPRPRPCDVPRP | 0.0259
20 | RRIRTRPPRLPRPRPRPASTPRP | -0.0927
21 | RRIRSRPPRLPRPRPRPEFKPRP | 0.00218
22 | RRIRPRPPRLPRPRPRPITRPRP | 0.31
23 | RRIRGRPPRLPRPRPRPWLCPRP | 0.266
24 | RRIRNRPPRLPRPRPRPGMTPRP | -0.257
25 | RRIRIRPPRLPRPRPRPYARPRP | -1.22

Row | Sequence | shrunken log2 fold change
26 | RRIRARPPRLPRPRPRPPNTPRP | 0.289
27 | RRIRLRPPRLPRPRPRPQHRPRP | -0.0199
28 | RRIRIRPPRLPRPRPRPFTHPRP | -0.182
29 | RRIRSRPPRLPRPRPRPRNFPRP | 0.146
30 | RRIRHRPPRLPRPRPRPPMSPRP | 0.0891
31 | RRIRARPPRLPRPRPRPHCLPRP | -0.116
32 | RRIRPRPPRLPRPRPRPCTTPRP | -0.732
33 | RRIRWRPPRLPRPRPRPNPLPRP | 3.58e-05
34 | RRIRKRPPRLPRPRPRPKIHPRP | -0.152
35 | RRIRARPPRLPRPRPRPTFLPRP | 0.113
36 | RRIRRRPPRLPRPRPRPWVVPRP | -0.0166
37 | RRIRQRPPRLPRPRPRPGMPPRP | -0.0642
38 | RRIRERPPRLPRPRPRPEYCPRP | 0.0191
39 | RRIRDRPPRLPRPRPRPWVCPRP | -0.0108
40 | RRIRMRPPRLPRPRPRPYRTPRP | 0.0313
41 | RRIRRRPPRLPRPRPRPYEMPRP | -0.0957
42 | RRIRNRPPRLPRPRPRPPTDPRP | 0.992
43 | RRIRCRPPRLPRPRPRPHQTPRP | -0.0284
44 | RRIRIRPPRLPRPRPRPVSNPRP | -0.0661
45 | RRIRPRPPRLPRPRPRPSPCPRP | -0.0121
46 | RRIRYRPPRLPRPRPRPSRDPRP | 0.0382
47 | RRIRVRPPRLPRPRPRPYFGPRP | -0.0505
48 | RRIRERPPRLPRPRPRPNDYPRP | -0.41
49 | RRIRERPPRLPRPRPRPPEYPRP | -0.0278
50 | RRIRDRPPRLPRPRPRPMGTPRP | -0.106

Row | Sequence | shrunken log2 fold change
51 | RRIRERPPRLPRPRPRPCLGPRP | -0.0295
52 | RRIRWRPPRLPRPRPRPFDEPRP | 0.129
53 | RRIRDRPPRLPRPRPRPGLHPRP | -6.57e-05
54 | RRIRSRPPRLPRPRPRPYYHPRP | -0.44
55 | RRIRIRPPRLPRPRPRPVECPRP | 0.00902
56 | RRIRYRPPRLPRPRPRPNAWPRP | -0.165
57 | RRIRHRPPRLPRPRPRPIVFPRP | -0.103
58 | RRIRKRPPRLPRPRPRPTQYPRP | 0.0924
59 | RRIRNRPPRLPRPRPRPLLPPRP | 0.0144
60 | RRIRCRPPRLPRPRPRPRYHPRP | -0.685
61 | RRIRVRPPRLPRPRPRPMWIPRP | 0.00541
62 | RRIRKRPPRLPRPRPRPNPIPRP | 0.0804
63 | RRIRMRPPRLPRPRPRPVEHPRP | -0.00663
64 | RRIRFRPPRLPRPRPRPRGLPRP | -0.0929
65 | RRIRGRPPRLPRPRPRPTWDPRP | 1.01
66 | RRIRNRPPRLPRPRPRPQHKPRP | -0.155
67 | RRIRQRPPRLPRPRPRPFGIPRP | -0.138
68 | RRIRKRPPRLPRPRPRPIVMPRP | 0.0102
69 | RRIRNRPPRLPRPRPRPLAWPRP | 0.00628
70 | RRIRGRPPRLPRPRPRPKPPPRP | 2.28
71 | RRIRFRPPRLPRPRPRPSNDPRP | -0.112
72 | RRIRGRPPRLPRPRPRPAFIPRP | -0.177
73 | RRIRLRPPRLPRPRPRPRKEPRP | 0.325
74 | RRIRWRPPRLPRPRPRPSHKPRP | -0.193
75 | RRIRVRPPRLPRPRPRPHGPPRP | -0.156

Row | Sequence | shrunken log2 fold change
76 | RRIRQRPPRLPRPRPRPYNTPRP | -0.325
77 | RRIRRRPPRLPRPRPRPWFMPRP | -0.125
78 | RRIRQRPPRLPRPRPRPYQQPRP | -0.0082
79 | RRIRLRPPRLPRPRPRPIWDPRP | -0.0847
80 | RRIRNRPPRLPRPRPRPEVNPRP | -0.0723
81 | RRIRLRPPRLPRPRPRPRSIPRP | -0.247
82 | RRIRTRPPRLPRPRPRPEQNPRP | 0.189
83 | RRIRWRPPRLPRPRPRPNLGPRP | 0.0106
84 | RRIRWRPPRLPRPRPRPPLHPRP | 0.417
85 | RRIRVRPPRLPRPRPRPHDTPRP | -0.212
86 | RRIRLRPPRLPRPRPRPYMTPRP | -0.82
87 | RRIRARPPRLPRPRPRPTYGPRP | -0.0482
88 | RRIRKRPPRLPRPRPRPHGNPRP | -0.0306
89 | RRIRERPPRLPRPRPRPNNQPRP | -0.59
90 | RRIRRRPPRLPRPRPRPINFPRP | -0.0729
91 | RRIRQRPPRLPRPRPRPYCWPRP | -0.554
92 | RRIRLRPPRLPRPRPRPFSLPRP | -0.127
93 | RRIRLRPPRLPRPRPRPDHWPRP | 0.143
94 | RRIRDRPPRLPRPRPRPLNNPRP | -0.305
95 | RRIRLRPPRLPRPRPRPGVWPRP | 0.401
96 | RRIRARPPRLPRPRPRPEYGPRP | 0.11
97 | RRIRDRPPRLPRPRPRPKLYPRP | 0.0658
98 | RRIRDRPPRLPRPRPRPSGAPRP | 0.0348
99 | RRIRDRPPRLPRPRPRPQTAPRP | 4.26
100 | RRIRDRPPRLPRPRPRPLHVPRP | -0.133

Row | Sequence | shrunken log2 fold change
101 | RRIRERPPRLPRPRPRPHMMPRP | -1.14
102 | RRIRVRPPRLPRPRPRPYQFPRP | -0.0508
103 | RRIRRRPPRLPRPRPRPHFMPRP | -0.141
104 | RRIRLRPPRLPRPRPRPWGYPRP | -0.359
105 | RRIRQRPPRLPRPRPRPFEFPRP | -0.109
106 | RRIRPRPPRLPRPRPRPLRWPRP | 0.588
107 | RRIRARPPRLPRPRPRPTPEPRP | 0.694
108 | RRIRERPPRLPRPRPRPEVCPRP | -0.0484
109 | RRIRARPPRLPRPRPRPNIYPRP | -0.418
110 | RRIRVRPPRLPRPRPRPVCKPRP | -0.444
111 | RRIRIRPPRLPRPRPRPSWTPRP | -0.237
112 | RRIRTRPPRLPRPRPRPNNWPRP | -0.12
113 | RRIRNRPPRLPRPRPRPHMAPRP | -0.401
114 | RRIRIRPPRLPRPRPRPFDGPRP | -0.262
115 | RRIRARPPRLPRPRPRPSCDPRP | 0.323
116 | RRIRPRPPRLPRPRPRPKDRPRP | -0.114
117 | RRIRPRPPRLPRPRPRPNCKPRP | -0.048
118 | RRIRKRPPRLPRPRPRPMSSPRP | 0.0811
119 | RRIRVRPPRLPRPRPRPEKGPRP | -0.09
120 | RRIRSRPPRLPRPRPRPGADPRP | 0.463
121 | RRIRERPPRLPRPRPRPSWVPRP | -0.178
122 | RRIRSRPPRLPRPRPRPQRYPRP | -0.167
123 | RRIRERPPRLPRPRPRPTSFPRP | 0.0302
124 | RRIRIRPPRLPRPRPRPEHCPRP | 0.0755
125 | RRIRLRPPRLPRPRPRPCQCPRP | -0.672
